Test results as given in article PMC4605308 (Nucleic Acids Research, 2015).

Molecular target: T1, hexahistidine-tagged ubiquitin (the ubiquitin part of the Rad6^iso∼Ub conjugate) (human, UniProt P0CG48 1-76, C-terminus linked to K88 of Rad6 C88K via an isopeptide linkage)
T1 construct: ubiquitin, human; The final model holds two additional N-terminal residues from the plasmid vector; also called His6-Ub; Ub-His6; source: in the crystal conjugated to Rad6^C88K
Assay: crystal structure; Rad6^iso∼Ub conjugate; sitting drop vapor diffusion at 20°C, 24% PEG 300, 50 mM sodium acetate, pH 5.4; one conjugate in the asymmetric unit, contacts between conjugates in the crystal
Conditions: both partners purified

binding result: binds
B1: Rad6 C88K (the Rad6 part of the Rad6^iso∼Ub conjugate) (enzyme, Saccharomyces cerevisiae, UniProt P06104 1-172, looked up)
chain: MSTPARRRLMRDFKRMKEDAPPGVSASPLPDNVMVWNAMIIGPADTPYEDGTFRLLLEFDEEYPNKPPHVKFLSEMFHPNVYANGEIKLDILQNRWTPTYDVASILTSIQSLFNDPNPASPANVEAATLFKDHKSQYVKRVKETVEKSWEDDMDDMDDDDDDDDDDDDDEAD
modifications: lysine at position 88 linked to the ubiquitin C-terminus via an isopeptide linkage
notes: Rad6, Saccharomyces cerevisiae, with C88K; Written on its own for the non-covalent contact between Rad6 of one conjugate and ubiquitin of another in the crystal; source: E. coli Rosetta2 DE3 pLysS, purified; in the crystal conjugated to His6-Ub; not shown: MBP, N-terminal, cleaved; His6, N-terminal, cleaved
